The numbers were not newly measured in paper PMC10919381, which cites them from elsewhere.

Like-named read-outs stand apart in the source and are kept apart here.

Data set [1] has as its target CBP/p300 TAZ1 (Homo sapiens) (UniProt Q92793).
Data set [2] shares this target. The source holds these as a separate data set.

UniProt Q92793, sequence (Q92793 347-433): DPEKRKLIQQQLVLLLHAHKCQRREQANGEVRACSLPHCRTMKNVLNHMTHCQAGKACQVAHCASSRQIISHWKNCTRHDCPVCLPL

Turning to CITED2 (from UniProt Q99967), the dissociation constant (Kd) in data set [1] was 10 nM.
For the substance HIF-1α (from UniProt Q16665), the Kd in data set [2] is 10 nM.
